According to doi:10.1101/2024.06.03.594717:

Experiments:
[1] = biological target: Tag-free FBXO22-SKP1 complex (human) (UniProt Q8NEZ5); experiment: SEC-MALS; Superdex 200 10/300 GL, 20 mM Tris-HCl pH 8.0, 150 mM NaCl, 0.25 mM TCEP, room temperature; tag-free FBXO22-SKP1, His-BACH1-BTB and their mixture
GST-FBXO22-SKP1 (human) = GST-FBXO22-SKP1 (human) (UniProt Q8NEZ5); experiment: BLI; Octet Red 96, anti-GST probes loaded with 200 nM GST-FBXO22-SKP1, BACH1-BTB as analyte, 30°C; 25 mM HEPES pH 7.4, 100 mM NaCl, 1 mM TCEP, 0.1% Tween-20, 0.05 mg/mL BSA; Kd from steady-state equilibrium
GST-FBXO22-SKP1 (human), sequence (Q8NEZ5 whole entry, chain 1 of 2): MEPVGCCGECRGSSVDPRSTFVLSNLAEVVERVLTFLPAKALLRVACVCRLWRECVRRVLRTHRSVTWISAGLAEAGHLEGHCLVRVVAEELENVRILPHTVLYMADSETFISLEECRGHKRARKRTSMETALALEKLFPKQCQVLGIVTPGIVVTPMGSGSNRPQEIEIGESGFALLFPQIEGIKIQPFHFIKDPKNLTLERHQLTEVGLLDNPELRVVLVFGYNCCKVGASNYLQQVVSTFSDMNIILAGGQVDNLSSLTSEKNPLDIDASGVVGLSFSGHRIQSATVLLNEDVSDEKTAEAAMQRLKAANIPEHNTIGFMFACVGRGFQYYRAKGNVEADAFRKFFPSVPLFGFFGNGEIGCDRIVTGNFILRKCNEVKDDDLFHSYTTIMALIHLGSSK
GST-FBXO22-SKP1 (human), sequence (P63208 whole entry, chain 2 of 2, further chain): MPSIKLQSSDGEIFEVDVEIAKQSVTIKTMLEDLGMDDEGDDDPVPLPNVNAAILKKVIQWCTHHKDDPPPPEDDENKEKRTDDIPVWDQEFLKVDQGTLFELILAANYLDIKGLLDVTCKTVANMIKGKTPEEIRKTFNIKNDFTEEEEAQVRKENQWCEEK

His-BACH1-BTB, sequence (O14867 7-128): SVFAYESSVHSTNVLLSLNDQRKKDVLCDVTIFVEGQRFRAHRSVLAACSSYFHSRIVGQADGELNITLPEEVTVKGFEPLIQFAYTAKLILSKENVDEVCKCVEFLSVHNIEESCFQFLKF
BACH1 BTB domain, sequence (O14867 7-128): as above
Tag-free FBXO22-SKP1 complex (human), sequence (Q8NEZ5 whole entry, chain 1 of 2): as the sequence (Q8NEZ5 whole entry, chain 1 of 2) above
Tag-free FBXO22-SKP1 complex (human), sequence (P63208 whole entry, chain 2 of 2, further chain): as the sequence (P63208 whole entry, chain 2 of 2, further chain) above

stoichiometry N (FBXO22-SKP1 per BACH1 BTB dimer) [1] | Kd (GST-FBXO22-SKP1 (human)) [nM] | Substance
1 | – | His-BACH1-BTB (from UniProt O14867 7-128) (domain or fragment)
– | 90 | BACH1 BTB domain (from UniProt O14867 7-128) (domain or fragment)
